The results in this text go back to patent US20120201746A1 (AbbVie / Abbott, published 2012).

B1: cMet-Mut1 (antibody, human IgG1, kappa)
heavy: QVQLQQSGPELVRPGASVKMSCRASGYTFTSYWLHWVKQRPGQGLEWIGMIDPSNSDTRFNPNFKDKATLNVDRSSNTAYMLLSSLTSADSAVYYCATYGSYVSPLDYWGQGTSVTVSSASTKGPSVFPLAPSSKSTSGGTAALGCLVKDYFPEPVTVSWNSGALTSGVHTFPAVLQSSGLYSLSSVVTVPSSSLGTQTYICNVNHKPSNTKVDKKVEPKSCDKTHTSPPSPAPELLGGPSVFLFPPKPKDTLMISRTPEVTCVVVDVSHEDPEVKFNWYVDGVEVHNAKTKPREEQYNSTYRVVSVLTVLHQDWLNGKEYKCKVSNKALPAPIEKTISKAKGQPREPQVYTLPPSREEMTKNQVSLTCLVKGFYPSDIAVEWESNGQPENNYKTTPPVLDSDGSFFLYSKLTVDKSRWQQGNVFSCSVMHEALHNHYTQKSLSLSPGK
light: DFMMSQSPSSLTVSVGEKVTVSCKSSQSLLYTSSQKNYLAWYQQKPGQSPKLLIYWASTRESGVPDRFTGSGSGTDFTLTITSVKADDLAVYYCQQYYAYPWTFGGGTKLELKRTVAAPSVFIFPPSDEQLKSGTASVVCLLNNFYPREAKVQWKVDNALQSGNSQESVTEQDSKDSTYSLSSTLTLSKADYEKHKVYACEVTHQGLSSPVTKSFNRGEC
notes: also called cMetHC-Mut1
B2: cMet-Mut14 (antibody, human IgG1, kappa)
heavy: QVQLQQSGPELVRPGASVKMSCRASGYTFTSYWLHWVKQRPGQGLEWIGMIDPSNSDTRFNPNFKDKATLNVDRSSNTAYMLLSSLTSADSAVYYCATYGSYVSPLDYWGQGTSVTVSSASTKGPSVFPLAPSSKSTSGGTAALGCLVKDYFPEPVTVSWNSGALTSGVHTFPAVLQSSGLYSLSSVVTVPSSSLGTQTYICNVNHKPSNTKVDKKVEPKSCDKTHTSPPSPAPELLGGPSVFLFPPKPKDTLMISRTPEVTCVVVDVSHEDPEVKFNWYVDGVEVHNAKTKPREEQYNSTYRVVSVLTVLHQDWLNGKEYKCKVSNKALPAPIEKTISKAKGQPREPQVYTLPPSREEMTKNQVSLTCLVKGFYPSDIAVEWESNGQPENNYKTTPPVLDSDGSFRLRSKLTVDKSRWQQGNVFSCSVMHEALHNHYTQKSLSLSPGK
light: DFMMSQSPSSLTVSVGEKVTVSCKSSQSLLYTSSQKNYLAWYQQKPGQSPKLLIYWASTRESGVPDRFTGSGSGTDFTLTITSVKADDLAVYYCQQYYAYPWTFGGGTKLELKRTVAAPSVFIFPPSDEQLKSGTASVVCLLNNFYPREAKVQWKVDNALQSGNSQESVTEQDSKDSTYSLSSTLTLSKADYEKHKVYACEVTHQGLSSPVTKSFNRGEC
notes: Half-Ig; CH3 F405R, Y407R; 96.1 % half-Ig by SEC; also called cMetHC-Mut14; cMet half Ig mut14
B3: cMet-Mut13 (antibody, human IgG1, kappa)
heavy: QVQLQQSGPELVRPGASVKMSCRASGYTFTSYWLHWVKQRPGQGLEWIGMIDPSNSDTRFNPNFKDKATLNVDRSSNTAYMLLSSLTSADSAVYYCATYGSYVSPLDYWGQGTSVTVSSASTKGPSVFPLAPSSKSTSGGTAALGCLVKDYFPEPVTVSWNSGALTSGVHTFPAVLQSSGLYSLSSVVTVPSSSLGTQTYICNVNHKPSNTKVDKKVEPKSCDKTHTSPPSPAPELLGGPSVFLFPPKPKDTLMISRTPEVTCVVVDVSHEDPEVKFNWYVDGVEVHNAKTKPREEQYNSTYRVVSVLTVLHQDWLNGKEYKCKVSNKALPAPIEKTISKAKGQPREPQVYTLPPSREEMTKNQVSLTCLVKGFYPSDIAVEWESNGQPENNYKTTPAVLDSDGSFFLYSDLTVDKSRWQQGNVFSCSVMHEALHNHYTQKSLSLSPGK
light: DFMMSQSPSSLTVSVGEKVTVSCKSSQSLLYTSSQKNYLAWYQQKPGQSPKLLIYWASTRESGVPDRFTGSGSGTDFTLTITSVKADDLAVYYCQQYYAYPWTFGGGTKLELKRTVAAPSVFIFPPSDEQLKSGTASVVCLLNNFYPREAKVQWKVDNALQSGNSQESVTEQDSKDSTYSLSSTLTLSKADYEKHKVYACEVTHQGLSSPVTKSFNRGEC
notes: Half-Ig; CH3 P395A, K409D; 94.9 % half-Ig by SEC; also called cMetHC-Mut13
B4: cMet-Mut18 (antibody, human IgG1, kappa)
heavy: QVQLQQSGPELVRPGASVKMSCRASGYTFTSYWLHWVKQRPGQGLEWIGMIDPSNSDTRFNPNFKDKATLNVDRSSNTAYMLLSSLTSADSAVYYCATYGSYVSPLDYWGQGTSVTVSSASTKGPSVFPLAPSSKSTSGGTAALGCLVKDYFPEPVTVSWNSGALTSGVHTFPAVLQSSGLYSLSSVVTVPSSSLGTQTYICNVNHKPSNTKVDKKVEPKSCDKTHTSPPSPAPELLGGPSVFLFPPKPKDTLMISRTPEVTCVVVDVSHEDPEVKFNWYVDGVEVHNAKTKPREEQYNSTYRVVSVLTVLHQDWLNGKEYKCKVSNKALPAPIEKTISKAKGQPREPQVYTLPPSREEMTKNQVSLTCLVKGFYPSDIAVEWESNGQPENNYKTTPPVLDSDGSFRLYSKLTVDKSRWQQGNVFSCSVMHEALHNHYTQKSLSLSPGK
light: DFMMSQSPSSLTVSVGEKVTVSCKSSQSLLYTSSQKNYLAWYQQKPGQSPKLLIYWASTRESGVPDRFTGSGSGTDFTLTITSVKADDLAVYYCQQYYAYPWTFGGGTKLELKRTVAAPSVFIFPPSDEQLKSGTASVVCLLNNFYPREAKVQWKVDNALQSGNSQESVTEQDSKDSTYSLSSTLTLSKADYEKHKVYACEVTHQGLSSPVTKSFNRGEC
notes: Half-Ig; CH3 F405R; 94.5 % half-Ig by SEC; also called cMetHC-Mut18; cMet half Ig mut18
B5: cMet-Mut5 (antibody, human IgG1, kappa)
heavy: QVQLQQSGPELVRPGASVKMSCRASGYTFTSYWLHWVKQRPGQGLEWIGMIDPSNSDTRFNPNFKDKATLNVDRSSNTAYMLLSSLTSADSAVYYCATYGSYVSPLDYWGQGTSVTVSSASTKGPSVFPLAPSSKSTSGGTAALGCLVKDYFPEPVTVSWNSGALTSGVHTFPAVLQSSGLYSLSSVVTVPSSSLGTQTYICNVNHKPSNTKVDKKVEPKSCDKTHTSPPSPAPELLGGPSVFLFPPKPKDTLMISRTPEVTCVVVDVSHEDPEVKFNWYVDGVEVHNAKTKPREEQYNSTYRVVSVLTVLHQDWLNGKEYKCKVSNKALPAPIEKTISKAKGQPREPQVYTLPPSREEMTKNQVSLTCLVKGFYPSDIAVEWESNGQPENNYKTTPAVLDSDGSFRLRSDLTVDKSRWQQGNVFSCSVMHEALHNHYTQKSLSLSPGK
light: DFMMSQSPSSLTVSVGEKVTVSCKSSQSLLYTSSQKNYLAWYQQKPGQSPKLLIYWASTRESGVPDRFTGSGSGTDFTLTITSVKADDLAVYYCQQYYAYPWTFGGGTKLELKRTVAAPSVFIFPPSDEQLKSGTASVVCLLNNFYPREAKVQWKVDNALQSGNSQESVTEQDSKDSTYSLSSTLTLSKADYEKHKVYACEVTHQGLSSPVTKSFNRGEC
notes: Half-Ig; CH3 P395A, F405R, Y407R, K409D; 97.2 % half-Ig by SEC; also called cMetHC-Mut5
B6: cMet-Mut11 (antibody, human IgG1, kappa)
heavy: QVQLQQSGPELVRPGASVKMSCRASGYTFTSYWLHWVKQRPGQGLEWIGMIDPSNSDTRFNPNFKDKATLNVDRSSNTAYMLLSSLTSADSAVYYCATYGSYVSPLDYWGQGTSVTVSSASTKGPSVFPLAPSSKSTSGGTAALGCLVKDYFPEPVTVSWNSGALTSGVHTFPAVLQSSGLYSLSSVVTVPSSSLGTQTYICNVNHKPSNTKVDKKVEPKSCDKTHTSPPSPAPELLGGPSVFLFPPKPKDTLMISRTPEVTCVVVDVSHEDPEVKFNWYVDGVEVHNAKTKPREEQYNSTYRVVSVLTVLHQDWLNGKEYKCKVSNKALPAPIEKTISKAKGQPREPQVYTLPPSREEMTKNQVSLTCLVKGFYPSDIAVEWESNGQPENNYKTTPAVLDSDGSFRLYSKLTVDKSRWQQGNVFSCSVMHEALHNHYTQKSLSLSPGK
light: DFMMSQSPSSLTVSVGEKVTVSCKSSQSLLYTSSQKNYLAWYQQKPGQSPKLLIYWASTRESGVPDRFTGSGSGTDFTLTITSVKADDLAVYYCQQYYAYPWTFGGGTKLELKRTVAAPSVFIFPPSDEQLKSGTASVVCLLNNFYPREAKVQWKVDNALQSGNSQESVTEQDSKDSTYSLSSTLTLSKADYEKHKVYACEVTHQGLSSPVTKSFNRGEC
notes: Half-Ig; CH3 P395A, F405R; 94.8 % half-Ig by SEC; also called cMetHC-Mut11; cMet half Ig mut11
B7: cMet-Mut19 (antibody, human IgG1, kappa)
heavy: QVQLQQSGPELVRPGASVKMSCRASGYTFTSYWLHWVKQRPGQGLEWIGMIDPSNSDTRFNPNFKDKATLNVDRSSNTAYMLLSSLTSADSAVYYCATYGSYVSPLDYWGQGTSVTVSSASTKGPSVFPLAPSSKSTSGGTAALGCLVKDYFPEPVTVSWNSGALTSGVHTFPAVLQSSGLYSLSSVVTVPSSSLGTQTYICNVNHKPSNTKVDKKVEPKSCDKTHTSPPSPAPELLGGPSVFLFPPKPKDTLMISRTPEVTCVVVDVSHEDPEVKFNWYVDGVEVHNAKTKPREEQYNSTYRVVSVLTVLHQDWLNGKEYKCKVSNKALPAPIEKTISKAKGQPREPQVYTLPPSREEMTKNQVSLTCLVKGFYPSDIAVEWESNGQPENNYKTTPPVLDSDGSFFLRSKLTVDKSRWQQGNVFSCSVMHEALHNHYTQKSLSLSPGK
light: DFMMSQSPSSLTVSVGEKVTVSCKSSQSLLYTSSQKNYLAWYQQKPGQSPKLLIYWASTRESGVPDRFTGSGSGTDFTLTITSVKADDLAVYYCQQYYAYPWTFGGGTKLELKRTVAAPSVFIFPPSDEQLKSGTASVVCLLNNFYPREAKVQWKVDNALQSGNSQESVTEQDSKDSTYSLSSTLTLSKADYEKHKVYACEVTHQGLSSPVTKSFNRGEC
notes: Half-Ig; CH3 Y407R; 94.4 % half-Ig by SEC; also called cMetHC-Mut19
B8: cMet-Mut10 (antibody, human IgG1, kappa)
heavy: QVQLQQSGPELVRPGASVKMSCRASGYTFTSYWLHWVKQRPGQGLEWIGMIDPSNSDTRFNPNFKDKATLNVDRSSNTAYMLLSSLTSADSAVYYCATYGSYVSPLDYWGQGTSVTVSSASTKGPSVFPLAPSSKSTSGGTAALGCLVKDYFPEPVTVSWNSGALTSGVHTFPAVLQSSGLYSLSSVVTVPSSSLGTQTYICNVNHKPSNTKVDKKVEPKSCDKTHTSPPSPAPELLGGPSVFLFPPKPKDTLMISRTPEVTCVVVDVSHEDPEVKFNWYVDGVEVHNAKTKPREEQYNSTYRVVSVLTVLHQDWLNGKEYKCKVSNKALPAPIEKTISKAKGQPREPQVYTLPPSREEMTKNQVSLTCLVKGFYPSDIAVEWESNGQPENNYKTTPAVLDSDGSFRLYSDLTVDKSRWQQGNVFSCSVMHEALHNHYTQKSLSLSPGK
light: DFMMSQSPSSLTVSVGEKVTVSCKSSQSLLYTSSQKNYLAWYQQKPGQSPKLLIYWASTRESGVPDRFTGSGSGTDFTLTITSVKADDLAVYYCQQYYAYPWTFGGGTKLELKRTVAAPSVFIFPPSDEQLKSGTASVVCLLNNFYPREAKVQWKVDNALQSGNSQESVTEQDSKDSTYSLSSTLTLSKADYEKHKVYACEVTHQGLSSPVTKSFNRGEC
notes: Half-Ig; CH3 P395A, F405R, K409D; 97.5 % half-Ig by SEC; also called cMetHC-Mut10; cMet half Ig mut10
B9: cMet-Mut3 (antibody, human IgG1, kappa)
heavy: QVQLQQSGPELVRPGASVKMSCRASGYTFTSYWLHWVKQRPGQGLEWIGMIDPSNSDTRFNPNFKDKATLNVDRSSNTAYMLLSSLTSADSAVYYCATYGSYVSPLDYWGQGTSVTVSSASTKGPSVFPLAPSSKSTSGGTAALGCLVKDYFPEPVTVSWNSGALTSGVHTFPAVLQSSGLYSLSSVVTVPSSSLGTQTYICNVNHKPSNTKVDKKVEPKSCDKTHTSPPSPAPELLGGPSVFLFPPKPKDTLMISRTPEVTCVVVDVSHEDPEVKFNWYVDGVEVHNAKTKPREEQYNSTYRVVSVLTVLHQDWLNGKEYKCKVSNKALPAPIEKTISKAKGQPREPQVYTLPPSREEMTKNQVSLFCFVKGFYPSDIAVEWESNGQPENNYKTTPAVLDSDGSFRLRSDLTVDKSRWQQGNVFSCSVMHEALHNHYTQKSLSLSPGK
light: DFMMSQSPSSLTVSVGEKVTVSCKSSQSLLYTSSQKNYLAWYQQKPGQSPKLLIYWASTRESGVPDRFTGSGSGTDFTLTITSVKADDLAVYYCQQYYAYPWTFGGGTKLELKRTVAAPSVFIFPPSDEQLKSGTASVVCLLNNFYPREAKVQWKVDNALQSGNSQESVTEQDSKDSTYSLSSTLTLSKADYEKHKVYACEVTHQGLSSPVTKSFNRGEC
notes: Half-Ig; CH3 T366F, L368F, P395A, F405R, Y407R, K409D; 82.4 % half-Ig by SEC; also called cMetHC-Mut3

The assay deals with T1, Neonatal Fc receptor (FcRn) on CHO-FcRnGPI cells.
T1 construct: whole, on cells; also called FcRn receptor
T1 sequence (P55899 24-297, chain 1 of 2): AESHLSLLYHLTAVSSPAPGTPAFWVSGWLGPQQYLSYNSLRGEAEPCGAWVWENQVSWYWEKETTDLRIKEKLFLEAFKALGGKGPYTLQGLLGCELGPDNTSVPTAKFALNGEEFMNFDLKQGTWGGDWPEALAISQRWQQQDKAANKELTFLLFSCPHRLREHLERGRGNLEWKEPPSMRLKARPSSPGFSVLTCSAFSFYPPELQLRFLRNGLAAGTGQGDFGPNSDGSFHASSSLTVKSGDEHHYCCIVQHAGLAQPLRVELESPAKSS
T1 sequence (P61769 21-119, chain 2 of 2, further chain): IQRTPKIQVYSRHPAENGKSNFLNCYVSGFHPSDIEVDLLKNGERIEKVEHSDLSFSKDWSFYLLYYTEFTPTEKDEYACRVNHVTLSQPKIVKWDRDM
The experiment in a line: flow cytometry on CHO-FcRnGPI cells, pH 6.4.
Protocol: CHO-FcRnGPI cells (Stable FcRn receptor expressor) and CHO-pBudl l cells (non-FcRn expressor) were aliquotted into 96-well plates at 1×10⁵ cells/well. Cells were resuspended in 150 μl FACS buffer. Anti-c-Met Ab and half-Ig binding proteins were diluted to 100 μg/ml in FACS buffer pH 6.4 and pH 7.4. 30 μl of diluted antibody or half-Ig binding protein was added to each well and incubated on ice for 1 hour. Following 2 washes with FACS buffer, 50 μl of secondary antibody R-phycoerythrin-conjugated AfiniPure F(ab′)₂ Fragment goat anti-human IgG (Jackson ImmunoResearch®, West Grove, Pa.) diluted in FACS buffer pH 6.4 or pH7.4 was added. The mixture was incubated for 30 min on ice. The cells were resuspended in 100 μl PBS with 1% FBS (Invitrogen®, Carlsbad, Calif.) and 2 μg/ml propidium iodide (Invitrogen®, Carlsbad, Calif.) of the corresponding pH. Final FACS data were acquired on a FACScan (Becton Dickinson, Franklin Lakes, N.J.).
A word on the EC50: it is the concentration needed to bring the measured effect to its halfway point. A lower EC50 goes with a more potent agent. On to B1, for which the EC50 was 1.09 µM.
B2 displayed an EC50 of 1.45 µM.
Under B3 stands 0.63 µM; under B4, 1980 µM.
Under B5 stands 3290 µM; under B6, 4700 µM; under B7, 2.98 µM.
B8 yielded an EC50 of 293 µM.
On to B9, for which it took 1.13 µM to reach a half-maximal effect (EC50). Against the preceding molecule, the EC50 is about 260-fold lower.
